This is an account of results in US20060115479A1 (INTERCELL, published 2006).

Assay [1] has as its target human fibrinogen (human) (UniProt P02671). Kind of assay: FITC-labelled bacteria on immobilized fibrinogen; less than 2% of the fbsA mutants bound (FIG. 23).
Assay [2] has the same target. Kind of assay: radiolabelled soluble human fibrinogen bound to whole GBS 6313 cells; the filing later attributes the binding to FbsA.
Assay [3] has the same target. As to the kind of experiment: FITC-labelled bacteria on fibrinogen-coated Terasaki plates; less than 2% of the fbsA mutant bound.
The target is the same in assay [4]. As to the kind of experiment: 125I-fibrinogen bound to whole bacteria; fbsA deletion mutant bound less than 2%.
Assay [5] addresses T1, human fibrinogen (human, UniProt P02671 20-629; P02675 31-491; P02679 27-437).
T1 construct: also called 125I-labelled fibrinogen; immobilized fibrinogen
T1 sequence 1: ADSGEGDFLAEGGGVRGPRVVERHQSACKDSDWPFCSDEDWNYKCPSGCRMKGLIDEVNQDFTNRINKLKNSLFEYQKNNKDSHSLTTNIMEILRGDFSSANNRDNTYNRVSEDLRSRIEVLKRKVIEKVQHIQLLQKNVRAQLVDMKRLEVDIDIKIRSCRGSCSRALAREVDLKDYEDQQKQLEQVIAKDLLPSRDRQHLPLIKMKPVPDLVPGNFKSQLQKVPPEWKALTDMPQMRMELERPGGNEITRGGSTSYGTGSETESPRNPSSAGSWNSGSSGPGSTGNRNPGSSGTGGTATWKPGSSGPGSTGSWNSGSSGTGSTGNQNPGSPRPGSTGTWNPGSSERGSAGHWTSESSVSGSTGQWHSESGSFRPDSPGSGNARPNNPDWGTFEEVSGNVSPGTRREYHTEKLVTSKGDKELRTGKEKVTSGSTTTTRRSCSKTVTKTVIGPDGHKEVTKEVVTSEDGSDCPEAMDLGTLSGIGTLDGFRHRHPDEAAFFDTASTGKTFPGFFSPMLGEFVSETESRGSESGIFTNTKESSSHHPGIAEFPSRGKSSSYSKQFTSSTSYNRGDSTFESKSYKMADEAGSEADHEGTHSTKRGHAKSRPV
T1 sequence 2: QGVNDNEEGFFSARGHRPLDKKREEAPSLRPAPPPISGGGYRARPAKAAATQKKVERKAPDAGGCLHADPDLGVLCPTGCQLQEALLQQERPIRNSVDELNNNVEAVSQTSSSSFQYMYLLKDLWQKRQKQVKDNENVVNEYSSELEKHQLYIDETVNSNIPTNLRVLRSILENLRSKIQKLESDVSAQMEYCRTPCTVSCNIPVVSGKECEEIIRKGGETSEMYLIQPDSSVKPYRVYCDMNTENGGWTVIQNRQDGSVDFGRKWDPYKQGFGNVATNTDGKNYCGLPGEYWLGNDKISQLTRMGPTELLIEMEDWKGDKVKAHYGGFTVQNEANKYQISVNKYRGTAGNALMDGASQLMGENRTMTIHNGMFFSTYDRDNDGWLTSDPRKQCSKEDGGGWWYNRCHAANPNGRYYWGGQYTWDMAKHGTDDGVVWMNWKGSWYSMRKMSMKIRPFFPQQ
T1 sequence 3: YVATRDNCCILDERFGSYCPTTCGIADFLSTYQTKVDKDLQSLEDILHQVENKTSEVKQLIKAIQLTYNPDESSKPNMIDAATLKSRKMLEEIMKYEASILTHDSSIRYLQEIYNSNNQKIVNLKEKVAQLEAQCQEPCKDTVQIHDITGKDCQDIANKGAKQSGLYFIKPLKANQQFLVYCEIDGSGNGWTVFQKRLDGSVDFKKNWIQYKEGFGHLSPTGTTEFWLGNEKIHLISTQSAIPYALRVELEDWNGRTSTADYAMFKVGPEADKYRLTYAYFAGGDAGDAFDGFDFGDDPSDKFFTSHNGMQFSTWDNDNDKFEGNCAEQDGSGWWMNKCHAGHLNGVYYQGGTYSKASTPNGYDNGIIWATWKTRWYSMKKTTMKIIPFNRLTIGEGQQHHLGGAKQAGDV
As to the kind of experiment: dot blot / SPOT membrane overlaid with human fibrinogen (FIG. 11).

The target of assay [6] is T1, human fibrinogen. As to the kind of experiment: refers to the SPOT membrane analysis of FIG. 11.

In the assay with human fibrinogen (human) [1], “FbsA protein of GBS strain SS1169 (native) (receptor)” came in with a percent of total bacteria bound to immobilized fibrinogen of 7%. The same measure, in the same setting: under “FbsA protein of GBS strain 0176 H4A (native) (receptor)” stands 4%. In the assay with human fibrinogen (human) [2], “FbsA protein of GBS strain 6313 (native) (receptor)” returned a percent of total radiolabelled fibrinogen bound of 50%. Besides, the percent of total bacteria bound to immobilized fibrinogen with human fibrinogen (human) [3] and with human fibrinogen (human) [1] was 45% throughout. The molecule further had a percent binding of 125I-labelled soluble fibrinogen in the assay with human fibrinogen (human) [4] of 50%. Take “FbsA protein of GBS strain O90R (native) (receptor)”: the percent of total bacteria bound to immobilized fibrinogen with human fibrinogen (human) [3] amounted to 24%; in the assay with human fibrinogen (human) [1], 18%. Also, the percent binding of 125I-labelled soluble fibrinogen with human fibrinogen (human) [4] amounted to 12%. As for “FbsA protein of GBS strain 706 S2 (native) (receptor)”, the results for the percent of total bacteria bound to immobilized fibrinogen with human fibrinogen (human) [3] and in the assay with human fibrinogen (human) [1] were 15% and 14%, respectively. In the assay with human fibrinogen (human) [4], this molecule returned a percent binding of 125I-labelled soluble fibrinogen of 8%.

B1: scrambled peptide GLSQNRDVRENQRARE (peptide)
peptide: GLSQNRDVRENQRARE
notes: Same amino acids as the repeat unit in a different order; spotted on cellulose; also called randomised peptide
Turning to B1, in the assay with human fibrinogen [5], the binding result is recorded as “no binding (tested: 2 µg/ml of human fibrinogen)”.

B2: alanine mutant peptide GAVLERRQRDAENRSQ (peptide)
peptide: GAVLERRQRDAENRSQ
notes: also called peptide <2>; N2A
Turning to B2, the binding result with human fibrinogen [6] is listed as “no binding”.

B3: alanine mutant peptide GNALERRQRDAENRSQ (peptide)
peptide: GNALERRQRDAENRSQ
notes: also called peptide <3>; V3A
B3: the binding result in the assay with human fibrinogen [6] was “no binding”.

B4: alanine mutant peptide GNVLERAQRDAENRSQ (peptide)
peptide: GNVLERAQRDAENRSQ
notes: also called peptide <5>; R7A
Turning to B4, in the assay with human fibrinogen [6], the binding result was “no binding”.
